Results published in patent US20160052979.

Legend:
Purα (PURA) = experiment: EMSA; details: unit not stated, densitometry
TZIP (synthetic) = system: T1, TZIP (synthetic); experiment: EMSA; details: unit not stated, densitometry
T1 sequence: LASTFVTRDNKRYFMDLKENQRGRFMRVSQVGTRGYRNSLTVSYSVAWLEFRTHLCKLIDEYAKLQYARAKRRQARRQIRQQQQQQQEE

Substance: ALS ssDNA (C9ORF72 GGGGCC hexanucleotide repeat)
- Kd (Purα (PURA); 5 mM DTT, 5 mM EDTA, 0.5% Tween 20): 16 nM
- Kd (TZIP (synthetic); printed 5.5×1010, exponent sign lost, 5 mM DTT, 5 mM EDTA, 0.5% Tween 20, TZIP alters Purα shift and stimulates …): 0.55 nM

Substance: FXS ssDNA (FMR1 G-rich trinucleotide expanded repeat)
- Kd (Purα (PURA); printed 1.9×109, exponent sign lost): 1.9 nM
- Kd (TZIP (synthetic); printed 9.5×1010, exponent sign lost, TZIP stimulates Purα binding): 0.95 nM
